The text below walks through data of patent US20050113293A1.

For experiment [1], the target named is binding site for [125I]AAP10 in murine heart tissue preparations (AAP receptor) (mouse). The experiment in a line: displacement of 0.8 nM [125I]AAP10, murine heart filtrate.
In experiment [2] the target is binding site for [125I]AAP10 on intact CHO cells (AAP receptor). In words: cell-based or functional assay.
Experiment [3] has the same target. The experiment in a line: in situ displacement of [125I]AAP10 on intact CHO cells.
The target in experiment [4] is binding site for [125I]AAP10 in murine heart tissue preparations (AAP receptor) (mouse). In words: displacement of 0.8 nM [125I]AAP10, murine heart membranes.

[ ]: non-standard residue; d: D form. Hyp = O=C(O)[C@@H]1C[C@@H](O)CN1

“Ac-D-Tyr-D-Pro-D-4Hyp-Gly-D-Ala-Gly-NH2 (Compound 2) (peptide)”: the IC50 in experiment [1] was determined as 3.6 nM; in experiment [3], 0.5 nM; in experiment [4], 1.2 nM. In addition, in experiment [2], the Inhibition of forskoline stimulated cAMP formation in CHO cells, EC50 turned out to be 6.2 nM.
Take “Ac-D-Tyr(3,5-di-I)-D-Pro-D-Hyp-Gly-D-Ala-Gly-NH2 (Compound 24) (peptide)”: the half-inhibitory concentration (IC50) in experiment [3] is 65 nM.

B1: ASAL(mono-iodo)-Pro-Hyp-Gly-Ala-Gly-NH2 (Compound 32) (peptide)
peptide: {ASAL(mono-iodo)}-P[Hyp]GAG-NH2
In the case of B1, the IC50 in experiment [3] was 0.5 nM.

B2: H-Gly-Ala-Gly-Hyp-Pro-Tyr-NH2 (AAP10) (peptide)
peptide: H-GAG[Hyp]PY-NH2
In the case of B2, the IC50 in experiment [1] is 1.2 nM; in experiment [3], 130 nM. In experiment [2], this molecule displayed an Inhibition of forskoline stimulated cAMP formation in CHO cells, EC50 of 11 nM.

B3: H-Gly-Pro-Hyp-Gly-Ala-Gly-OH (AAP) (peptide)
peptide: H-GP[Hyp]GAG-OH
SMILES: C[C@H](NC(=O)CNC(=O)[C@@H]1C[C@@H](O)CN1C(=O)[C@@H]1CCCN1C(=O)CN)C(=O)NCC(=O)O
Take B3: the IC50 came out at 1.2 nM in experiment [1] and 0.8 nM in experiment [3]. The molecule further registered an Inhibition of forskoline stimulated cAMP formation in CHO cells, EC50 in experiment [2] of 53 nM.
